Patent publication US20060183130A1 (VANDERBILT UNIVERSITY, published 2006)

Target: T1, endogenous c-Myc of p53-/- mouse embryo fibroblasts (mouse, UniProt P01108-2 1-439, limits assumed)
T1 construct: Endogenous protein in a cell lysate
Experiment: co-IP, summary of the experiments (endogenous proteins)
Text: FIGS. 2A-F ARF—binds to c-Myc. FIGS. 2A-D, Coimmunoprecipitation of ARF and c-Myc. Cos-7 cells transfected with c-Myc and/or ARF were subjected to immunoprecipitation (IP) using anti-Mycfl (fl, full length; FIG. 2A) or anti-ARF (FIG. 2B) followed by immunoblot (IB) analysis using the indicated antibody. FIG. 2C, c-myc^{-/-} cells, ARF^{-/-} MEFs or p53^{-/-} MEFs were subjected to IP using anti-Mycfl followed by IB analysis. FIG. 2D, HeLa cells were subjected to IP using anti-p14ARF or anti-Mycfl followed by IB analysis. FIG. 2E, Coimmunoprecipitation of c-Myc deletions with ARF. Cos-7 cells transfected with the indicated c-Myc deletion mutant were subjected to IP with anti-ARF followed by IB analysis. FIG. 2F, Schematic representation of the structure of c-Myc and c-Myc deletions showing relative binding to ARF.
Immunoprecipitation and Immunoblotting Analysis. Cell lysates were prepared and coimmunoprecipitation of endogenous proteins was performed as described previously (Weber et al., 1999). For coimmunoprecipitation of exogenous proteins, cells were lysed in Ab lysis buffer (20 mM Tris, pH 7.5, 0.5% Triton X-100, 0.5% deoxycholic acid (DOC) and 0.5% SDS, 1 mM EDTA) and immunoprecipitates were subjected immunoblot analysis using anti-c-Mycfl (06-340, Upstate) or anti-ARF (Ab80, GeneTex; 07-543, Upstate) and enhanced chemiluminescence for detection. […]

T1 sequence (P01108 16-454 limits assumed): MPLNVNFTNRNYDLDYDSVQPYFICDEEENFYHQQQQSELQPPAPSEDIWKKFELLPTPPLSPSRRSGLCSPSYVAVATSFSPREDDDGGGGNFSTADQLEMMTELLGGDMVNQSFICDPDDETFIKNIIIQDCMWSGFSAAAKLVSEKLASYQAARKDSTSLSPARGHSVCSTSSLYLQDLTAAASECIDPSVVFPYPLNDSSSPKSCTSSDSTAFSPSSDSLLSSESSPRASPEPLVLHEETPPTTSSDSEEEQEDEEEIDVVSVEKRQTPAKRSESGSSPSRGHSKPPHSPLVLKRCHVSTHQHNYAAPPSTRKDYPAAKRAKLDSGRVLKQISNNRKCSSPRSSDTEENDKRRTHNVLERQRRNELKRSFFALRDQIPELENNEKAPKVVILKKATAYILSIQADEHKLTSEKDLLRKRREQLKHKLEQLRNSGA

B1: mouse p19ARF (murine p19Arf) (other)
chain: MGRRFLVTVRIQRAGRPLQERVFLVKFVRSRRPRTASCALAFVNMLLRLERILRRGPHRNPGPGDDDGQRSRSSSSAQLRCRFELRGPHYLLPPGARRSAGRLPGHAGGAARVRGSAGCARCLGSPAARLGPRAGTSRHRAIFAFRWVLFVFRWVVFVYRWERRPDRRA
binding result: binds
